± gives the standard error. Variants at the floor of the assay were thinned out.
B1: glmS ribozyme (parent)
chain: AUAAAAGCGCCAGAACUACAGAAAUGUAGUUGACGAGGAGGAGGUUUAUCGAAUUUUCGGCGGAUGCCUCCAAA

Variants of: B1
Experiment: self-cleavage kobs at 640 uM GlcN6P; higher = faster cleavage; RNA array
Details: with glucosamine-6-phosphate
How it was run: (§1)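 Glucosamine-6-phosphate, from 40 μM to 10 mM in HEPES/KCl/Mg(OAc)2 buffer, was flowed over sequenced MiSeq chips carrying barcoded ribozyme variants transcribed in situ by E. coli RNA polymerase. A hybridised Cy3 probe tracked the variants at 37 °C as tiles were imaged over ~14 h. kobs, kcat and KM were obtained by fitting normalised per-tile medians to exponential decays and then applying weighted Michaelis–Menten fits across concentrations.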

Variant	self-cleavage kobs at 640 uM GlcN6P
G35U G44C G66U	< 1e-05 s⁻¹
G29U A53G U57C C67G U69A	0.000459 ± 0.00022 s⁻¹
C8G G9U A52U	< 1e-05 s⁻¹
G32C G44U A64C	< 1e-05 s⁻¹
G7C A42U A53U C67G	< 1e-05 s⁻¹
A6U C70A	0.000142 ± 6.1e-05 s⁻¹
G7A C8G A14U U65G	< 1e-05 s⁻¹
C8G G29A G51C G59U	< 1e-05 s⁻¹
C34A G41C C70U	< 1e-05 s⁻¹
A14G G44U U46A	0.000181 ± 4.5e-05 s⁻¹
G43C A53U U55A U57A	< 1e-05 s⁻¹
G32U C34G U69G	8.49e-05 ± 2.2e-05 s⁻¹
A14C A42U G63A	< 1e-05 s⁻¹
C11G C70A	3.62e-05 ± 1.5e-05 s⁻¹
C16A A53G G62A	< 1e-05 s⁻¹
G13C A14U G40U G51C A53G U54A	< 1e-05 s⁻¹
G29A G40U G41C	< 1e-05 s⁻¹
A42U G60C C61U	< 1e-05 s⁻¹
G32A G35C A39G	< 1e-05 s⁻¹
A42U C61U C67U	< 1e-05 s⁻¹
C8G G32A A53G	< 1e-05 s⁻¹
G32U G35U G40A U55A	< 1e-05 s⁻¹
A6C U55G U65G C67U	< 1e-05 s⁻¹

Variants of: B1
Experiment: self-cleavage kobs at 2500 uM GlcN6P; higher = faster cleavage; RNA array
Details: with glucosamine-6-phosphate
How it was run: as §1

Variant	self-cleavage kobs at 2500 uM GlcN6P
C34G G38A C70G	5.16e-05 ± 2.4e-05 s⁻¹
A39C A53U C67A	6.25e-05 ± 1.6e-05 s⁻¹
A12C G41A G63A	< 1e-05 s⁻¹
C10U A33G G35U U47A G59C	< 1e-05 s⁻¹
C8G G9U A52U	< 1e-05 s⁻¹
C11G C67A	< 1e-05 s⁻¹
U46G G51U G59A	< 1e-05 s⁻¹
C11U A14G G43A	< 1e-05 s⁻¹
U30G G62A A64U C71U	< 1e-05 s⁻¹
U30C A53U G66U U69G	0.000128 ± 2.7e-05 s⁻¹
C10U U30A U46G	< 1e-05 s⁻¹
A15U G35C G38U U47G U69G	< 1e-05 s⁻¹
A6U C70A	2.49e-05 ± 9.6e-06 s⁻¹
G32A U49A U65G	< 1e-05 s⁻¹
G38A C58U C71U	< 1e-05 s⁻¹
G29A G32U G60C	< 1e-05 s⁻¹
G7A C8G A14U U65G	< 1e-05 s⁻¹
G7U C16A U30C A52U G60U C71G	< 1e-05 s⁻¹
C8U A12C A15U U30A U54G U55G C70U	< 1e-05 s⁻¹
A14C G21U	0.00132 ± 0.00031 s⁻¹
A33U U55G C58G	< 1e-05 s⁻¹
A14G G32C C58A A64G	9.27e-05 ± 3e-05 s⁻¹

Variant	self-cleavage kobs at 2500 uM GlcN6P
G32A G60C C70A	< 1e-05 s⁻¹
A14G G44U U46A	0.000253 ± 8.6e-05 s⁻¹
C10G A12U C50G	0.000103 ± 2.4e-05 s⁻¹
A6C G9A G32A	< 1e-05 s⁻¹
G37A A39C G63U	< 1e-05 s⁻¹
A12U G41A C68U	3.9e-05 ± 1.6e-05 s⁻¹
G37A A39C G59C	< 1e-05 s⁻¹
A6G G29A C50G	0.000103 ± 3.9e-05 s⁻¹
G13A G32U G35C A39C	< 1e-05 s⁻¹
G44C C70A C71U	< 1e-05 s⁻¹
C16A G38A U55A	< 1e-05 s⁻¹
U31G A39U U55G C71U	0.0043 ± 0.00067 s⁻¹
A33U U55C G60C	< 1e-05 s⁻¹
U30C C58G C70U	5.76e-05 ± 1.9e-05 s⁻¹
A12U G41U A42G G51C	< 1e-05 s⁻¹
A12G G29C G37A U46A	< 1e-05 s⁻¹
C16G U65A C71U	0.000341 ± 8.1e-05 s⁻¹
G13A G44C U46A A53G	< 1e-05 s⁻¹
C8A C11U C34G G38A	< 1e-05 s⁻¹
A39U A48G C71U	4.36e-05 ± 1.5e-05 s⁻¹
A6U C11U C34G G40A A52G G60A C71A	< 1e-05 s⁻¹
G7C C10G G51U	< 1e-05 s⁻¹

Variant	self-cleavage kobs at 2500 uM GlcN6P
C11A A33C A36G U46G G51A G62A	< 1e-05 s⁻¹
A36U G38C U47G	< 1e-05 s⁻¹
C16U A36C A52C C61A	< 1e-05 s⁻¹
G35A A48C G51A U56G	< 1e-05 s⁻¹
A12C G35U A36G U65G	< 1e-05 s⁻¹
U30A U31A U57A C71U	0.000133 ± 3.1e-05 s⁻¹
A48C G63A C71A	< 1e-05 s⁻¹
U45A U47G U54G U56C	0.00285 ± 0.00062 s⁻¹
A12C C16U C50U	3.9e-05 ± 1.5e-05 s⁻¹
G38A C50G U57C	0.000163 ± 6.6e-05 s⁻¹
G38C G41C C61A C71G	< 1e-05 s⁻¹
G32A G35C A39G	< 1e-05 s⁻¹
C11U G40A C71U	0.000785 ± 0.00023 s⁻¹
A15C C16U U17A C70G	7.4e-05 ± 1.7e-05 s⁻¹
A36C U49A U56A	< 1e-05 s⁻¹
C58G C67A C70U C71U	7.14e-05 ± 2.7e-05 s⁻¹
A12U U31C G44U C67A	0.00303 ± 0.001 s⁻¹
A15U G35U A48C A64U	< 1e-05 s⁻¹
A33G G37A G62C	< 1e-05 s⁻¹
G40U A42U G43A C71A	< 1e-05 s⁻¹

Variants of: B1
Experiment: self-cleavage kobs at 10000 uM GlcN6P; higher = faster cleavage; RNA array
Details: with glucosamine-6-phosphate
How it was run: as §1

Variant	self-cleavage kobs at 10000 uM GlcN6P
G32C G44U A64C	< 1e-05 s⁻¹
A15U G35C G38U U47G U69G	0.000954 ± 0.0003 s⁻¹
G7A C8G A14U U65G	< 1e-05 s⁻¹
A12U G41A C68U	6.86e-05 ± 1.4e-05 s⁻¹
A12U G41U A42G G51C	< 1e-05 s⁻¹
C16G U65A C71U	0.000346 ± 8.7e-05 s⁻¹

Source: the supplement of paper PMC7125110
